Experimental findings from the supplement of paper PMC10567573 are described below.

± gives the standard deviation.

This data set is described as follows: protein stability index of a GFP-peptide fusion (GPS, HEK-293T) (PSI 1-6); higher = more stable.
[1] abbreviates: treatment: DMSO, c terminus: a fixed tail appended.
The mark [2] stands for this setting: treatment: MLN4924 1 uM, 8 h, c terminus: a fixed tail appended.
Setting [3] is: treatment: DMSO, c terminus: native.
Setting [4] is: treatment: MLN4924 1 uM, 8 h, c terminus: native.
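Note: 24-mer peptide tiles fused after GFP, lentivirally expressed, FACS-sorted into six equal bins by GFP/DsRed ratio, decoded by Illumina sequencing, PSI is the read-weighted mean bin number.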

Regarding GIQQLLQAEKRAAEKVSEARKRKN [ATP6V1G1], the protein stability index was found to be 4.12 ± 0.62 under setting [1] and 3.84 ± 0.74 under setting [2].

In the case of GKYDSGIPPYSRASLKGYQWLKDK [KCNAB2], the protein stability index was 3.26 ± 0.073 under setting [1] and 3.23 ± 0.24 under setting [2].

For GLCKQDGQLRVFGAGLLSSISELK [TPH1], the protein stability index reads like this: under setting [1], 2.05 ± 0.28; under setting [2], 2.39 ± 0.4.

For GLDVLLAQEVRPRRWKLQVLDLRK [PRAME], the protein stability index amounted to 2.31 ± 0.46 under setting [1] and 2.33 ± 0.48 under setting [2].

Consider GLFVPSLLCGAAFGRLVANVLKSY [CLCN6], for which the protein stability index by setting is: under setting [1], 2.2 ± 0.55; under setting [2], 2.37 ± 0.64.

With GLLLRGAVDGILHMFTPKLDKMLD [SLC6A17], the protein stability index worked out at 2.35 ± 0.47 under setting [1] and 2.43 ± 0.66 under setting [2].

As for GLLQLDHRGLRCSWEGLAVLDSLL [RSAD1], the protein stability index is, setting by setting: under setting [1], 2.31 ± 0.56; under setting [2], 2.06 ± 0.31.

For GLLSKTAGFSPDCIMDDAINILQN [INTS4], the protein stability index came to 2.91 ± 0.33 under setting [1] and 2.89 ± 0.17 under setting [2].

For the sequence GLPSSELDAVENQLKWASWELHSL [ZNF24], the protein stability index under setting [1] was 2.98 ± 0.15 and the protein stability index under setting [2] came to 3 ± 0.38.

GLSESSGPHTISNQNNYRLLSCGK [ACSBG2]: the protein stability index reads like this: under setting [1], 4.55 ± 0.41; under setting [2], 4 ± 0.28.

Regarding GLSSVSPSHLLLPPDTVSRTGLEK [SPDEF], the protein stability index amounted to 4.52 ± 0.23 under setting [1] and 4.33 ± 0.2 under setting [2].

For the sequence GNGRPGRPSQYRPDGLRSGDGVPP [LCOR], the protein stability index was determined as 4.59 ± 0.31 under setting [1] and 4.79 ± 0.2 under setting [2].

As for GNNPNGREAKMICFKSVAKTPYDT [ELOA2], the protein stability index was determined as 3.84 ± 0.43 under setting [1] and 3.93 ± 0.3 under setting [2].

For the sequence GNQLQLNQHCLDTAFNFFKMAVSR [BRF1], the protein stability index amounted to 2.25 ± 0.36 under setting [1] and 1.96 ± 0.28 under setting [2].

GPDGHLPAVATLCDLFDREIVVTI [ESRRA]: the protein stability index runs as follows: under setting [1], 3.01 ± 0.7; under setting [2], 2.91 ± 0.41.

For GPGDGPPEIAQNFSAPDPPRPRPV [SMTNL2], the protein stability index runs as follows: under setting [1], 5.05 ± 0.19; under setting [2], 5.03 ± 0.24.

As for GPMPMSMPNVMTGTMGMAPLGNTP [CLINT1], the protein stability index is 4.03 ± 0.21 under setting [1] and 4.02 ± 0.31 under setting [2].

For the sequence GPSLVPGKTPTVRAALICLTLVLV [CD207], the protein stability index runs as follows: under setting [1], 2.28 ± 0.44; under setting [2], 2.73 ± 0.62.

For the sequence GQLDEKEKDLVGLAQIAEVLEMFD [RHOBTB1], the protein stability index by setting is: under setting [1], 3.4 ± 0.37; under setting [2], 3.61 ± 0.58.

GQTSGAREPPQAVSIKEAAGSSNL [VENTX]: the protein stability index reads like this: under setting [1], 5.26 ± 0.26; under setting [2], 5.15 ± 0.25.

With GRGDEASEEGQNGSSPKSKTKWTK [ADD1], the protein stability index came to 5.22 ± 0.16 under setting [1] and 5.36 ± 0.36 under setting [2].

GRTENGALAPKQELPSALESHEVP [ZNF24]: the protein stability index runs as follows: under setting [1], 5.24 ± 0.1; under setting [2], 5.27 ± 0.086.

Regarding GSAPPRATPGGGTGEAARPHKGLN [PCDHGC5], the protein stability index worked out at 5.19 ± 0.34 under setting [1] and 5.26 ± 0.32 under setting [2].

Regarding GSARYDFSHEILRDEESFFGERRI [ALKBH7], the protein stability index reads like this: under setting [1], 3.75 ± 0.29; under setting [2], 3.71 ± 0.5.

On to GSLKSVEVREPALRPAKRELRGAE [SPSB4], for which the protein stability index runs as follows: under setting [1], 4.98 ± 0.37; under setting [2], 5.03 ± 0.14.

With GSNDRVQGVISQLEDTCKTIEECC [TRIM55], the protein stability index is 4.71 ± 0.098 under setting [1] and 4.77 ± 0.31 under setting [2].

Consider GSNYANFELDLGKKVLNLLKGAFP [PTPN9], for which the protein stability index is, setting by setting: under setting [1], 2.29 ± 0.42; under setting [2], 2.12 ± 0.35.

GSRLCLYEDGTELTEDYFPSVPDN [DFFB] yielded a protein stability index under setting [1] of 4.44 ± 0.44 and a protein stability index under setting [2] of 4.66 ± 0.45.

Consider GSVADTVARVLRGCLENMPEADCI [PLK2], for which the protein stability index is, setting by setting: under setting [1], 2.88 ± 0.4; under setting [2], 2.94 ± 0.33.

For GTPMALIVISYIHVAAAVLRIRSV [OR3A1], the protein stability index was 3.16 ± 0.48 under setting [1] and 3.24 ± 0.074 under setting [2].

For GTPTSHVYMFKNGSGDSGDSSEEE [LYSMD4], the protein stability index under setting [1] was 5.37 ± 0.4 and the protein stability index under setting [2] is 5.39 ± 0.28.

For the sequence GYDHLWDETLSSSHQKCPQLGGPE [PLEKHN1], the protein stability index by setting is: under setting [1], 4.19 ± 0.3; under setting [2], 4.31 ± 0.32.

In the case of GYKSNQVRGLYDFYLPREELWIYN [KLHDC2], the protein stability index reads like this: under setting [1], 2.44 ± 0.16; under setting [2], 1.98 ± 0.17.

As to GYPTYKEKVKKRPGGRPEVIYNYV [BTBD10], the protein stability index reads like this: under setting [1], 2.41 ± 0.16; under setting [2], 2.85 ± 0.33.

Regarding GYREDNIPQLEDVSNFLKERTGFS [TPH1], the protein stability index by setting is: under setting [1], 3.75 ± 0.24; under setting [2], 3.99 ± 0.42.

In turn, HARTHPQTALLESSCENKRADLVF [MATN2] had a protein stability index under setting [1] of 4.09 ± 0.46 and a protein stability index under setting [2] of 4.02 ± 0.19.

For the sequence HDTEIRKVHMKDVMSALWVSGLDS [GAN], the protein stability index under setting [1] was 2.78 ± 0.29 and the protein stability index under setting [2] turned out to be 2.75 ± 0.4.

As to HFSFNVKFYPPDPAQLSEDITRYY [EPB41L3], the protein stability index under setting [1] was determined as 2.21 ± 0.24 and the protein stability index under setting [2] was determined as 2.12 ± 0.12.

In the case of HIDAIILALPEDLQGILLKTGMT [DENND6A], the protein stability index was 2.31 ± 0.59 under setting [3] and 2.59 ± 0.67 under setting [4].

Turning to HITARIESDLTLESLSDEEIHPG [DRICH1], the protein stability index is 4.47 ± 0.23 under setting [3] and 4.38 ± 0.37 under setting [4].

HLRTHTGERPYKCSECGESFSRSS [ZNF263] had a protein stability index under setting [1] of 3.16 ± 0.19 and a protein stability index under setting [2] of 3.38 ± 0.55.

On to HLSGSHNTLAPTCFKAKLHRKRGS [RSPH3], for which the protein stability index was 3.67 ± 0.14 under setting [1] and 3.77 ± 0.37 under setting [2].

In the case of HLSRLCVRHNLGDTRLGQVSALPL [SPSB2], the protein stability index under setting [1] was found to be 2.38 ± 0.14 and the protein stability index under setting [2] turned out to be 2.54 ± 0.33.

As to HLVIAEMMELGSRSRGASQKKQKL [FATE1], the protein stability index turned out to be 3.25 ± 0.14 under setting [1] and 3.34 ± 0.2 under setting [2].

As for HLYIYSIHSIPKGTEITIAFDFDY [KMT2E], the protein stability index is 3.39 ± 0.45 under setting [1] and 3.08 ± 0.33 under setting [2].

As for HNAVTSHQRPGWPGQPHSPFPHPT [NCF4], the protein stability index runs as follows: under setting [1], 3.11 ± 0.17; under setting [2], 3.67 ± 0.21.

Regarding HQLGFIHRDIKPDNLLLDAKGHVK [STK38L], the protein stability index is, setting by setting: under setting [1], 3.71 ± 0.31; under setting [2], 4.12 ± 0.26.

Turning to HQRFLREGRFWKSKNEDRGEEEAE [ZMYND11], the protein stability index runs as follows: under setting [1], 4.94 ± 0.21; under setting [2], 5.27 ± 0.2.

As for HRAHHKFSETHADPHNSRRGFFFS [SCD], the protein stability index is 3.08 ± 0.18 under setting [1] and 3.05 ± 0.3 under setting [2].

Take HRLRVQQAALRAARLRHQELFRLR [NOP53]: the protein stability index by setting is: under setting [1], 2.88 ± 0.23; under setting [2], 2.87 ± 0.4.

In the case of HRSYLGPGSTSPLETSGNPNGRYG [SLC6A17], the protein stability index by setting is: under setting [1], 4.27 ± 0.062; under setting [2], 4.26 ± 0.29.

As for HSAAYRADPLRVSSRDKLTEMAAS [FUNDC2], the protein stability index reads like this: under setting [1], 3.92 ± 0.3; under setting [2], 4.23 ± 0.22.

For HSRFVELSEAYRVLSREQSRRSYD [DNAJC4], the protein stability index is 3.54 ± 0.23 under setting [1] and 3.7 ± 0.14 under setting [2].

As for HTTGPTGSAPNSPMALLTIGSSSE [TFE3], the protein stability index came to 4.53 ± 0.12 under setting [1] and 4.54 ± 0.23 under setting [2].

HVQDPQNTVKVQVLYPDGQAQMIH [INTS4]: the protein stability index under setting [1] was found to be 3.74 ± 0.23 and the protein stability index under setting [2] turned out to be 3.52 ± 0.29.

Regarding HVSPPPSADPARGLPRSRDCRVDL [PDLIM4], the protein stability index under setting [1] came out at 4.76 ± 0.14 and the protein stability index under setting [2] turned out to be 4.73 ± 0.13.

HYKKAPIFTSEHGEKLYLVRALQ [NCK2]: the protein stability index turned out to be 2.42 ± 0.61 under setting [3] and 2.2 ± 0.34 under setting [4].

Turning to ICAAAGRMGATMAAINSIYSNTDA [GLT8D2], the protein stability index under setting [1] turned out to be 2.26 ± 0.43 and the protein stability index under setting [2] came to 2.2 ± 0.34.

With IDPRNGIPKLTPGDNPYMYPEQSK [SPATS1], the protein stability index reads like this: under setting [1], 4.58 ± 0.13; under setting [2], 4.5 ± 0.18.

Take IDVSKREPPPVKQELPPYNGFGLV [EFHC1]: the protein stability index was 3 ± 0.095 under setting [1] and 3.03 ± 0.27 under setting [2].

Sequence IELNGGQPPLTYKRFQTLISKMEP [CRY1] yielded a protein stability index under setting [1] of 2.53 ± 0.3 and a protein stability index under setting [2] of 2.51 ± 0.16.

Take IENIQRVAAGVLCELAQDKEAAEA [CTNNB1]: the protein stability index is, setting by setting: under setting [1], 5.08 ± 0.11; under setting [2], 5.1 ± 0.48.

As for IHTGERPYKCPECGKSFSRSSHLV [ZNF263], the protein stability index is, setting by setting: under setting [1], 2.66 ± 0.45; under setting [2], 3.18 ± 0.55.

In the case of IIISEPMGYMLFNERMLESYLHAK [CARM1], the protein stability index reads like this: under setting [1], 2.66 ± 0.41; under setting [2], 2.51 ± 0.35.

Regarding IIKMATARQETKEMARKVIEHCSN [ZER1], the protein stability index turned out to be 2.94 ± 0.35 under setting [1] and 3.08 ± 0.13 under setting [2].

For IINAKSNDGWTPLHVAAHYGRDSF [ASB7], the protein stability index turned out to be 2.46 ± 0.24 under setting [1] and 2.41 ± 0.42 under setting [2].

In the case of IMDANQTYLVSERLEREERNQTQV [FAF2], the protein stability index under setting [1] stood at 4.16 ± 0.2 and the protein stability index under setting [2] is 4.32 ± 0.1.

In the case of INCQLSDPSSTKPGTLLKTSPSPE [TRIM14], the protein stability index was 4.79 ± 0.3 under setting [1] and 4.88 ± 0.31 under setting [2].

INVPIRLECVKFASHCLMNHPDLA [PDS5B]: the protein stability index is, setting by setting: under setting [1], 2.28 ± 0.46; under setting [2], 2.27 ± 0.17.

In the case of IPEKDMDERRRLLEQKTQESQKKK [ZNF207], the protein stability index reads like this: under setting [1], 5.51 ± 0.27; under setting [2], 5.59 ± 0.11.

For IPIFNETGRFSFTLPYPVKIKVRF [HACD3], the protein stability index worked out at 2.92 ± 1.2 under setting [1] and 2.77 ± 0.44 under setting [2].

With ISNIFSNYFSAMYSSEDSTLASVP [ELF3], the protein stability index turned out to be 2.2 ± 0.25 under setting [1] and 2.1 ± 0.18 under setting [2].
